{"source": "paper PMC8866402", "about": "“Fortilin interacts with TGF-β1 and prevents TGF-β receptor activation” (Communications Biology, 2022)", "binders": {"B1": {"name": "recombinant human Flag-tagged fortilin (natural protein)", "chain": "MIIYRDLISHDEMFSDIYKIREIADGLCLEVEGKMVSRTEGNIDDSLIGGNASAEGPEGEGTESTVITGVDIVMNHHLQETSFTKEAYKKYIKDYMKSIKGKLEEQRPERVKPFMTGAAEQIKHILANFKNYQFFIGENMNPDGMVALLDYREDGVTPYMIFFKDGLEMEKC", "notes": "fortilin, human; the abstract calls fortilin a 172-amino acid protein; also called rh-fortilin; source: bought: OriGene (Catalog #: TP301664)"}, "B2": {"name": "biotinylated rh-fortilin (natural protein, human)", "chain": "B1 chain", "modifications": "biotin (NHS-PEG4-biotin)", "notes": "fortilin, human; The BLI methods say only 'rh-fortilin'; also called biotinylated fortilin; source: rh-fortilin biotinylated with NHS-PEG4-biotin and desalted"}}, "key": {"[1]": {"target": "T1, recombinant human Flag-tagged p53 (human, UniProt P04637 1-393)", "T1 construct": "p53, human; Positive control of the co-IP; also called rh-p53; source: bought: OriGene (Catalog #: TP300003)", "T1 sequence (P04637 whole entry)": "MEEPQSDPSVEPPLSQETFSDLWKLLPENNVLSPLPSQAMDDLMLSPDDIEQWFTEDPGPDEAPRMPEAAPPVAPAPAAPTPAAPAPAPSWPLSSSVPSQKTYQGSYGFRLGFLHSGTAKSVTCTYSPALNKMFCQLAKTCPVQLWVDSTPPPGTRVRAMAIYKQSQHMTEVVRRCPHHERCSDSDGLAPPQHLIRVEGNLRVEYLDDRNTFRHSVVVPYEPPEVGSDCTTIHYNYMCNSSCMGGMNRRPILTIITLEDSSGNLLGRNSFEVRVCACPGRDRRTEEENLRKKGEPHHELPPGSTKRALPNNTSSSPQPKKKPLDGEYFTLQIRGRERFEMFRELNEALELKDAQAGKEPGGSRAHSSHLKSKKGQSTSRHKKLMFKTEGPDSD", "experiment": "co-IP; in vitro mixture of recombinant Flag-fortilin, TGF-β1, Flag-p53 and His6-NQO2 in Buffer A (10 mM Tris pH 7.4, 100 mM NaCl, 0.01% NP-40); rabbit anti-fortilin mAb or rabbit IgG, 2 h room temperature; anti-rabbit IgG Dynabeads; four washes in Buffer B (0.3% NP-40); western blot", "details": "both partners purified"}, "[2]": {"target": "T2, recombinant human latency-associated-peptide (LAP)-TGF-β1 protein (human, UniProt P01137 30-278)", "T2 construct": "TGF-β1 precursor, human; 'latency-associated-peptide (LAP)-TGF-β1'; As far as I recall, R&D Systems 246-LP is the LAP of TGF-β1 alone (about Leu30-Arg278 of the precursor), not the latent complex; also called LAP-TGF-β1 molecule; source: bought: R&D Systems (Catalog #: 246-LP-025/CF)", "T2 sequence (P01137 30-278)": "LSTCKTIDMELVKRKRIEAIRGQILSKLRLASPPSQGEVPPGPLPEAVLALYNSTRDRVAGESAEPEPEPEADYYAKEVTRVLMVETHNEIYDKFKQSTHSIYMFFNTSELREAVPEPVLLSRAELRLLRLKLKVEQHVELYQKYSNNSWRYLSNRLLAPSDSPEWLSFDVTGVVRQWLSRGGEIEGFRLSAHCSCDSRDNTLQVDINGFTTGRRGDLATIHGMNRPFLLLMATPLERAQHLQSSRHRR", "experiment": "BLI; BLItz; biotinylated rh-fortilin immobilised on streptavidin biosensors (30 μg/mL, PBS); various concentrations of analyte, 180 s association, 180 s dissociation in PBS", "details": "both partners purified"}}}
{"binder": "B1", "values": [{"measurement": "binding result", "setting": "[1]", "value": "binds"}]}
{"binder": "B2", "values": [{"measurement": "Kd", "setting": "[2]", "value": 930, "unit": "nM"}]}
